Experimental data reported in the supplement of paper PMC12338614.

B1: library; numbered along this chain (parent)
chain: MEVVDPQQLGMFTEGELMSVGMDTFIHRIDSTEVIYQPRRKRAKLIGKYLMGDLLGEGSYGKVKEVLDSETLCRRAVKILKKKKLRRIPNGEANVKKEIQLLRRLRHKNVIQLVDVLYNEEKQKMYMVMEYCVCGMQEMLDSVPEKRFPVCQAHGYFCQLIDGLEYLHSQGIVHKDIKPGNLLLTTGGTLKISDLGVAEALHPFAADDTCRTSQGSPAFQPPEIANGLDTFSGFKVDIWSAGVTLYNITTGLYPFEGDNIYKLFENIGKGSYAIPGDCGPPLSDLLKGMLEYEPAKRFSIRQIRQHSWFRKKHPPAEAPVPIPPSPDTKDRWRSMTVVPYLEDLHGADEDEDLFDIEDDIIYTQDFTVPGQVPEEEASHNGQRRGLPKAVCMNGTEAAQLSTKSRAEGRAPNPARKACSASSKIRRLSACKQQ

Variants of: B1
Test: STK11 functional score (HeLa growth suppression), rescaled enrichment; synonymous median = 1, nonsense median = 0 (normalised score)
Details: with HeLa; variant type: missense
Procedure: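 Deep mutational scan (TileSeq/POPCode codon randomisation) of full-length codon-optimised STK11 cDNA integrated at a Bxb1 landing pad (AAVS1) in HeLa cells. Restoring functional STK11 suppresses HeLa proliferation. Variant frequencies were measured by NGS before and after about two weeks of growth. The error-corrected enrichment log-ratio was rescaled so that synonymous median = 1 and nonsense median = 0, scores above 1 were compressed, and codon-level and three biological replicate scores were combined; error is the bootstrapped standard error. Scale: synonymous median = 1, nonsense median = 0; below 0.5 = damaging.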

STK11 functional score: each site, then its substitutions
R42: S 1.08 | W 1.68 | K 1.26 | T 0.779
E57: M 1.26 | I 1.15 | Q 1.06 | F 0.821 | G 1.08 | A 1.15 | R 1.13 | K 1.12 | Y 0.95 | P 1.62 | L 0.946 | H 1.53 | T 1.69 | D 0.893 | W 0.873 | S 1.17 | V 0.968
K44: A 1.57 | N 1.08 | I 1.16 | C 1.12 | F 1.34 | T 0.843 | V 0.967 | D 0.859 | M 0.633 | R 1.12 | S 1.4 | W 1.3 | Y 1.46 | L 1.36 | G 0.448 | Q 1.24
L54: G 1.22 | S 1.2 | W 0.575 | M 1.1 | V 0.645 | Y 1.47 | A 0.975 | K 1.61 | D 1.14 | F 0.99 | N 1.64 | R 0.812 | I 0.71 | H 1.15 | P 1.21 | T 1.47
Y60: N 0.674 | V 0.694 | M 1.64 | S 1.48 | I 1.23 | W 1.58 | L 0.748 | C 0.482 | R 1.51
I46: E 1.57 | G 0.857 | S 0.762 | A 1.5 | M 0.908 | Y 1.29 | H 1.58 | L 1.25 | T 1.24 | R 0.979 | V 0.613 | P 0.555 | C 1.17 | W 0.0413 | D 0.149
G52: A 0.893 | V 1.1 | M -0.407 | I 1.64 | L 1.37 | S 1.53 | C 1.49 | F 1.63
M51: H 1.68 | Y 1.62 | L 0.806 | W 0.189 | A 1.45 | P 1.66 | K 1.32 | V 0.725 | S 0.844 | Q 1.66 | G 1.1 | T 1.21 | R 1.16 | I 1.16
G56: M 1 | A 0.838 | F 0.171 | Q -0.0947 | P 0.136 | L 0.359 | H 0.0953 | Y -0.102 | W -0.159 | V 0.273 | R 0.136 | C 0.475 | S 0.788 | I 0.188 | T 0.231 | E 1.13
K48: V 1.24 | S 1.37 | A 0.852 | P 1.41 | T 1.59 | D 1.34 | I 1.34 | R 1.42 | Q 1.41 | N 0.966 | Y 1.4 | W 0.798 | L 1.3
Y36: W -0.265 | N 1.6 | R 1.3 | S 0.558 | V 0.824 | M 0.892 | T 1.04 | L 1.03
G61: C 1.13 | A 1.35 | E 0.195
L45: I 0.969 | V 0.939 | N 0.985 | D 1.34 | F 1.1 | W 1.65 | G 1.25 | A 0.863 | K 1.53 | C 1.08 | T 1.27 | Y 0.913 | M 1.25 | R 1.18 | S 1.36
D53: R 1.58 | M 0.483 | L 0.555 | W 0.204 | Y 1.38 | E 0.779 | C 1.1 | G 0.726 | V 0.606 | S 1.51 | A 1.07 | H 1.23 | P 1.52
Y49: I 1.24 | L 0.852 | S 1 | Q 0.0367 | W 1.01 | C 1.01 | D 0.131 | R 0.545 | H 1.11 | V 0.956 | F 1.12 | M 1.22 | P 0.101
A43: R 1.64 | G 0.859 | Q -0.492 | L 1.58 | Y 1.67 | V 0.673 | P 1.37 | S 1.34 | T 1.43 | F 1.23 | M 1.57 | I 1.18 | W 1.06
Q37: N 0.934 | H 0.921 | L 1.15 | G 1.08 | S 1.34 | V 1.38 | R 1.34 | D 1.4 | M 1.17 | F 0.309 | C 0.0953 | I 1.65 | A 1.34 | T 1.69 | W 0.288 | P 1.16
L55: I 1.39 | R 1.21 | D 1.31 | P 1.23 | V 0.737 | W 0.491 | Q 1.59 | A 0.122 | C 1.43 | G 1.53 | H 1.43 | S 0.693 | F -0.181 | M 0.938
G58: I -0.159 | A 0.935 | Y -0.201 | S 0.988 | C 0.374 | N 0.559 | F 0.0123 | R -0.318 | E 1.04 | V -0.308 | L -0.188 | W 0.24 | P 0.174 | M 0.219
R40: T 1.68 | A 1.6 | V 1.64 | G 1.19 | C 1.39 | I 1.63 | D 1.68 | F 1.3 | P 1.17 | K 1 | E 1.41 | M 1.28 | L 0.804 | S 0.887 | W 1.24 | H 1.09
L50: I 1.62 | P 0.95 | G 0.949 | A 1.52 | D 1.39 | R 1.47 | H 1.08 | M 0.814 | C 1.41 | V 0.846 | S 1.09 | T 1.29 | W 0.44
P38: Q 1.58 | G 0.508 | W 0.876 | E 1.36 | S 1.06 | F 1.31 | K 1.6 | L 0.812 | D 1.7 | H 1.11 | N 0.557 | T 0.9 | V 1.01 | M 1.09 | A 1.06 | R 0.891 | Y 0.0651
S59: W 0.719 | V 1.55 | T 1.32 | C 0.952 | R 1.5 | H 1.09 | A 1.19 | Q 1.63 | D 0.937 | G 1.65 | E 1.42 | I 1.31 | L 1.56 | N 1.45 | F 0.672
R39: D 1.19 | L 1.45 | C 0.223 | I 1.12 | A 1.12 | T 0.548 | H 1.13 | E -0.363 | M 1.58 | G 1.04 | N 0.65 | K 0.866 | S 1.17 | Q 0.277 | W 1.22 | V 1.22
G47: V 0.431 | R 1.31 | S 1.62 | A 1.4
K41: R 1.6 | D 1.39 | L 1.27 | S 1.46 | F 1.14 | H 1.44 | A 1.25 | I 0.844 | E 1.42 | P 1.58 | G 1.25 | W 1.49 | V 1.36 | C 1.47 | Q 0.893 | T 1.27
